Consider two proteins from ChEMBL document CHEMBL1250451, “Mechanistic insights into a Ca2+-dependent family of alpha-mannosidases in a human gut symbiont” (Nat Chem Biol, 2010).

What all share (format): protein assay
Substrate in data set [1]: O=[N+]([O-])c1ccc(O[C@H]2O[C@H](CO)[C@@H](O)[C@H](O)[C@@H]2O)cc1
Description: (§1) Activity of Bacteroides thetaiotaomicron GH92 alpha-mannosidase 3990 E533Q mutant assessed as as mannose release after 16 hrs by HPLC relative to wild type enzyme.

Substrate in data set [2]: OC[C@H]1O[C@H](O[C@H]2[C@@H](O)[C@H](O)[C@@H](CO)O[C@@H]2O)[C@@H](O)[C@@H](O)[C@@H]1O
The data set is described as §1.

Substrate in data set [3]: O=[N+]([O-])c1ccc(O[C@H]2O[C@H](CO)[C@@H](O)[C@H](O)[C@@H]2O)cc1
The data set can be described thus: (§2) Ratio of Kcat to Km for Bacteroides thetaiotaomicron GH92 alpha-mannosidase 3990 E533Q mutant assessed as as mannose release after 16 hrs by HPLC relative to wild type enzyme.

Substrate in data set [4]: OC[C@H]1O[C@H](O[C@H]2[C@@H](O)[C@H](O)[C@@H](CO)O[C@@H]2O)[C@@H](O)[C@@H](O)[C@@H]1O
Described as §2.

Substrate in data set [5]: O=[N+]([O-])c1ccc(O[C@H]2O[C@H](CO)[C@@H](O)[C@H](O)[C@@H]2O)c([N+](=O)[O-])c1
The data set is described as §2.

Substrate in data set [6]: O=[N+]([O-])c1ccc(O[C@H]2O[C@H](CO)[C@@H](O)[C@H](O)[C@@H]2O)cc1
The data set can be described thus: (§3) Activity of Bacteroides thetaiotaomicron GH92 alpha-mannosidase 3990 E585A mutant assessed as as mannose release after 16 hrs by HPLC relative to wild type enzyme.

Substrate in data set [7]: OC[C@H]1O[C@H](O[C@H]2[C@@H](O)[C@H](O)[C@@H](CO)O[C@@H]2O)[C@@H](O)[C@@H](O)[C@@H]1O
The data set is described as §3.

Substrate in data set [8]: O=[N+]([O-])c1ccc(O[C@H]2O[C@H](CO)[C@@H](O)[C@H](O)[C@@H]2O)cc1
Description: (§4) Ratio of Kcat to Km for Bacteroides thetaiotaomicron GH92 alpha-mannosidase 3990 E585A mutant assessed as as mannose release after 16 hrs by HPLC relative to wild type enzyme.

Substrate in data set [9]: OC[C@H]1O[C@H](O[C@H]2[C@@H](O)[C@H](O)[C@@H](CO)O[C@@H]2O)[C@@H](O)[C@@H](O)[C@@H]1O
The data set is described as §4.

Substrate in data set [10]: O=[N+]([O-])c1ccc(O[C@H]2O[C@H](CO)[C@@H](O)[C@H](O)[C@@H]2O)c([N+](=O)[O-])c1
The description is as §4.

B1: Alpha-1,2-mannosidase (BT_3990) (Bacteroides thetaiotaomicron), Q8A0N1 E533Q (protein)
chain: MKRLLLIACILNCTLLSQAKDWTQYVNPLMGSQSTFELSTGNTYPAIARPWGMNFWTPQTGKMGDGWQYTYTANKIRGFKQTHQPSPWINDYGQFSIMPIVGQPVFDEEKRASWFAHKGEVATPYYYKVYLAEHDIVTEMTPTERAVLFRFTFPENDHSYVVVDAFDKGSYIKIIPEENKIIGYTTRNSGGVPENFKNYFIIEFDKPFTYKATVENGNLQENVAEQTTDHAGAIIGFKTRKGEQVNARIASSFISFEQAAANMNELGKDNIEQLAQKGKDAWNQVLGKIEVEGGNLDQYRTFYSCLYRSLLFPRKFYELDANGQPIHYSPYNGQVLPGYMFTDTGFWDTFRCLFPLLNLMYPSVNKEMQEGLINTYLESGFFPEWASPGHRGCMVGNNSASILVDAYMKGVKVDDIKTLYEGLIHGTENVHPEVSSTGRLGYEYYNKLGYVPYDVKINENAARTLEYAYDDWCIYRLAKELKRPKKEISLFAKRAMNYKNLFDKESKLMRGRNEDGTFQSPFSPLKWGDAFTQGNSWHYTWSVFHDPQGLIDLMGGKEMFVTMMDSVFAVPPIFDDSYYGQVIHEIREMTVMNMGNYAHGNQPIQHMIYLYDYAGQPWKAQYWLRQVMDRMYTPGPDGYCGDEDNGQTSAWYVFSALGFYPVCPGTDEYVMGTPLFKKATLHFENGNSLVIDAPNNSTENFYIDSMSFNGADHTKNYLRHEDLFKGGTIKVDMSNRPNLNRGTKEEDMPYSFSKE
Turning to B1, the Km stood at 10000 µM in data set [1] and 960 µM in data set [2]. Also, the kcat was 0.147 s⁻¹ in [1] and 0.000233 s⁻¹ in [2]. The kcat/Km in data set [3] is 14.3 M⁻¹ s⁻¹; in data set [4], 0.25 M⁻¹ s⁻¹; in data set [5], 10300 M⁻¹ s⁻¹.

B2: Alpha-1,2-mannosidase (BT_3990) (Bacteroides thetaiotaomicron), Q8A0N1 E585A (protein)
chain: MKRLLLIACILNCTLLSQAKDWTQYVNPLMGSQSTFELSTGNTYPAIARPWGMNFWTPQTGKMGDGWQYTYTANKIRGFKQTHQPSPWINDYGQFSIMPIVGQPVFDEEKRASWFAHKGEVATPYYYKVYLAEHDIVTEMTPTERAVLFRFTFPENDHSYVVVDAFDKGSYIKIIPEENKIIGYTTRNSGGVPENFKNYFIIEFDKPFTYKATVENGNLQENVAEQTTDHAGAIIGFKTRKGEQVNARIASSFISFEQAAANMNELGKDNIEQLAQKGKDAWNQVLGKIEVEGGNLDQYRTFYSCLYRSLLFPRKFYELDANGQPIHYSPYNGQVLPGYMFTDTGFWDTFRCLFPLLNLMYPSVNKEMQEGLINTYLESGFFPEWASPGHRGCMVGNNSASILVDAYMKGVKVDDIKTLYEGLIHGTENVHPEVSSTGRLGYEYYNKLGYVPYDVKINENAARTLEYAYDDWCIYRLAKELKRPKKEISLFAKRAMNYKNLFDKESKLMRGRNEDGTFQSPFSPLKWGDAFTEGNSWHYTWSVFHDPQGLIDLMGGKEMFVTMMDSVFAVPPIFDDSYYGQVIHAIREMTVMNMGNYAHGNQPIQHMIYLYDYAGQPWKAQYWLRQVMDRMYTPGPDGYCGDEDNGQTSAWYVFSALGFYPVCPGTDEYVMGTPLFKKATLHFENGNSLVIDAPNNSTENFYIDSMSFNGADHTKNYLRHEDLFKGGTIKVDMSNRPNLNRGTKEEDMPYSFSKE
B2: the Km entry in data set [6] is “Not Active”; in [7], 2300 µM. In addition, the kcat result in data set [6] was “Not Active”; in [7] it was 0.00733 s⁻¹. Besides, the values for the kcat/Km in [8], in data set [9] and in data set [10] were 5.5 M⁻¹ s⁻¹, 3.17 M⁻¹ s⁻¹ and 9330 M⁻¹ s⁻¹, respectively.
